{"source": "paper doi:10.1101/2021.02.18.431817", "about": "(bioRxiv, 2021)", "binders": {"B1": {"name": "CML49:YFP (natural protein, A. thaliana, UniProt Q8W4L0 1-335, looked up)", "chain": "MSGYPPSSQGYGYGGNPPPPQPPYGSTGNNPPPYGSSGSNPPPPYGSSASSPYAVPYGAQPAPYGAPPSAPYASLPGDHNKPHKEKPHGASYGSPSPGGYGAHPSSGPSDYGGYGGAPQQSGHGGGYGGAPQQSGHGGGYGAPPPQASYGSPFASLVPSAFPPGTDPNIVACFQAADRDNSGFIDDKELQGALSSYNQSFSIRTVHLLMYLFTNSNVRKIGPKEFTSLFFSLQNWRSIFERFDKDRSGRIDTNELRDALMSLGFSVSPVILDLLVSKFDKSGGRNRAIEYDNFIECCLTVKGLTEKFKEKDTALSGSAIFNYENFMLTVLPFLVA"}}, "key": {"[1]": {"molecular_target": "T1, SAP2:CFP (A. thaliana, UniProt Q8H0X0 1-173)", "T1 sequence (looked up)": "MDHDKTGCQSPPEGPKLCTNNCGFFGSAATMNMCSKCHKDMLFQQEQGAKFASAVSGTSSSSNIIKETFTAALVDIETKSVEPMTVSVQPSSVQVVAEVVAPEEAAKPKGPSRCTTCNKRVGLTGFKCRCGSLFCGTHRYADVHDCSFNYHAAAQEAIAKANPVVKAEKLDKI", "assay": "FRET or BRET"}, "[2]": {"molecular_target": "T2, SAP3:CFP (A. thaliana, UniProt Q9ZNU9 1-163)", "T2 sequence (looked up)": "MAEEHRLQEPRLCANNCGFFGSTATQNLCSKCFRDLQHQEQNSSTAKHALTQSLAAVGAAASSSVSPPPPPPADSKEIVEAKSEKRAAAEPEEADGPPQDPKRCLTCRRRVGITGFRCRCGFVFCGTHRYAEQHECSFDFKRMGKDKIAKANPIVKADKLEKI", "assay": "FRET or BRET"}}}
{"binder": "B1", "values": [{"measurement": "FRET efficiency, fold of negative control", "setting": "[1]", "result": "> 5 fold of negative control"}, {"measurement": "FRET efficiency, fold of negative control", "setting": "[2]", "result": "> 5 fold of negative control"}]}
